Data reported in patent US12098206B2, “PDGF receptor antibody and use thereof” (Seoul National University R&DB Foundation, priority 2018, dated 2024).

Key:
NIH3T3 cells = assay: cells; assay type: cell-based, mouse
Procedure: NIH3T3 cells were added to 50 μL of DMEM supplemented with 10% FBS and 1% penicillin/streptomycin, placed in a 96-well plate (CLS3595, Corning) and incubated overnight in 5% CO2 at 37° C. incubator. In each well containing 50 μL of cells, 50 μL of 50 anti-PDGFR-β x cotinine scFv-Cκ-scFv fusion protein (25.6 pM-2 μM) complexed with cot-duo or cot-duo-cot obtained in Experimental Example 10 was added and incubated for 72 hours in 5% CO2 at 37° C. incubator. To test mPDGF-BB on the toxic effect of the bispecific antibody of scFv-Cκ-scFv and the cotinine-duocarmycin complex, mPDGF-BB (2 nM) was added together with 50 μL of the bispecific antibody scFv-Cκ-scFv and the cotinine-duocarmycin complex. The mixed complexes were added to 50 μL of NIH3T3 cells.
The bispecific antibody of anti-HER2 x cotinine scFv-Cκ-scFv was used as a control. After 72 hours of incubation in the cells, 100 μL of Cell Titer-Glo reagents (Promega Corp., Madison, WI, USA) were added to all wells according to the manufacturer's instructions, and luminescence was measured in a luminometer (PerkinElmer, Waltham, MA, USA). The experiment was repeated 3 times. Relative viability was calculated with the following formula: [% viability=(luminescence of experimental well-luminescence of background well)/(luminescence of control-luminescence of background well)×100]. The wells containing only new medium were used as background wells.
To evaluate the toxicity of the complex of anti-mPDGFR-B x cotinine scFv-Cκ-scFv bispecific antibodies and cotinine duocarmycin (cot-duo, cot-duo-cot), the complexes were added to NIH3T3 cells in the presence/absence of mPDGF-BB. The ATP of the cells was measured for relative cell viability. The toxicity of the bispecific antibody of scFv-Cκ-scFv fusion antibody was shown by IC50 in Table 6 and FIG. 5.
It was carried out in the same manner as in Example 7, except that the bispecific antibody related with the anti-mPDGFR-β antibody and the bispecific antibody related with the anti-hPDGFR-β antibody prepared in Example 10 were used. FIG. 20a to FIG. 20b are graphs showing the difference in cytotoxic activity of PRb-CN01 and PRb-CN32 bispecific antibodies and cotinine-duocarmycin complexes in the cells expressing PDGFR-β. In FIG. 20b, an experiment was repeated in the presence of mPDGF-BB.

mPDGFR-β [1] = target: T1, mPDGFR-β (Mus musculus, UniProt P05622); assay: Competition enzyme immunoassay against PRb-CN01-rabbit Fc on mPDGFR-β-hFc; assay type: binding; settings: competitor bispecific scFv-Cκ-scFv 100 nM; FIG. 19a
T1 construct: mPDGFR-β
T1 sequence (P05622 32-530): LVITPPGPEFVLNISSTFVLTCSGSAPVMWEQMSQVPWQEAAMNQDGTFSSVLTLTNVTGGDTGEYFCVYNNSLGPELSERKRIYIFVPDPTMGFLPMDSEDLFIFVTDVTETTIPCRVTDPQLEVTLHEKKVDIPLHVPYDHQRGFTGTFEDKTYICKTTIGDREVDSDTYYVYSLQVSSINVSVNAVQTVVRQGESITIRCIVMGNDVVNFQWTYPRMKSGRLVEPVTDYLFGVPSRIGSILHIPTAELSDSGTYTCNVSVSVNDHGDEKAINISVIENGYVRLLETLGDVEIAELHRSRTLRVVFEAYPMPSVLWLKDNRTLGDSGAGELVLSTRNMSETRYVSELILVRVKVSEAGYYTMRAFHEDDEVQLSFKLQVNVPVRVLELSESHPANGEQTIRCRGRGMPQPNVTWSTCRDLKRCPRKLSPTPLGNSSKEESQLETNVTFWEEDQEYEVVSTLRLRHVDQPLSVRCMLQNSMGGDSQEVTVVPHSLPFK
Procedure: It was carried out in substantially the same manner as the enzyme immunoassay method for antibody binding ability of Example 3, except that mPDGFR-β-hFc chimeric protein was coated with O/N on a microtiter plate at a temperature of 4° C. After incubating the blocking agent in each well, various concentrations of PRb-CN01-rabbit Fc (0.01 nM-1 μM) and PRb-CN01, control anti-HER2 antibody, and PRb-CN32 bispecific scFv-Cκ-scFv (100 nM) diluted in 3% BSA/PBS were reacted in each well at 37° C. for 2 hours. After washing the plate three times with PBST, the HRP-anti rabbit Fc antibody was reacted at 37° C. for 1 hour, and after washing, the reaction was performed using ABTS. Then, the absorbance was measured at 405 nm with a Multiscan Ascent microplate device (Labsystems, Helsinki, Finland) (FIG. 19A). FIG. 19a is the result of confirming the competition for the PRb-CN01 surrogate antibody.

mPDGFR-β [2] = target: T1, mPDGFR-β; assay: Competition enzyme immunoassay with mPDGF-BB; assay type: binding; settings: mPDGF-BB 100 nM; FIG. 4a
Procedure: In order to confirm the competition between the bispecific antibody according to the present invention and mPDGF-BB, the microtiter plate was coated with mPDGFR-β-Fc chimera as mentioned above and then blocked. The microtiter plate was treated with various concentrations of the bispecific antibody (0.06 nM-1 μM) with or without addition of mPDGF-BB (100 nM), and then incubated at 37° C. for 2 hours. The washing, incubation, and detection were performed in the same manner as the enzyme immunoassay described above.
A competition enzyme immunoassay was developed to examine the effect of mPDGF-BB on the binding ability of anti-mPDGFR-β x cotinine scFv-Cκ-scFv fusion protein. The serially diluted bispecific antibodies (anti-mPDGFR-β scFv-Cκ-cotinine scFv) were incubated on wells coated with mPDGFR-β-Fc chimeric fusion protein with or without mPDGF-BB. HRP-anti-human Cκ antibody was incubated and then TMB was added. […] However, the binding ability of PRb-CN01 was not inhibited, so it confirmed that PRb-CN01 binds to mPDGFR-β in a noncompetitive manner to mPDGF-BB.

MOLT-4 cells = assay: Cytotoxicity in MOLT-4 cells not expressing mPDGFR-β; assay type: cell-based; settings: complex with cot-duo; FIG. 7
Procedure: FIG. 7 is a graph confirming the cytotoxic ability of the bispecific antibody related to the anti-mPDGFR-β antibody and cot-duo complexes in the cells not expressing PDGFR-β. In FIG. 7a, MOLT-4 cells were reacted with the bispecific antibody and cot-duo complex (DAR4). The cellular ATP was measured to evaluate the relative cell viability. In FIG. 7b, MOLT-4 cells were reacted with the bispecific antibody and cot-duo complex (DAR2). The bispecific antibody anti-HER2 x cotinine scFv-Cκ-scFv was used as a negative control. DMSO was used as a vehicle control for cot-duo.

B1: PRb-CN32: anti-hPDGFR-β scFv clone (VH SEQ ID NO 47, VL SEQ ID NO 48), tested as scFv-Cκ-anti-cotinine scFv bispecific antibody (antibody, V domains shown)
VH: AVTLDESGGGLQTPRGTLSLVCKASGFTFSSFNMFWVRQAPGKGLEFVAGISTTGRYTGYGSAVQGRGTISRDNGQSTVRLQLNNLRAEDTGTYYCAKSAGSTYSYWDSDAGLIDAWGHGTEVIVSSTS
VL: LTQPSSVSANLGETVKITCSGGSNAGSYYYGWYQQKSPGSAPVTVIYSNNQRPSDIPSRFSGSTSGSTSTLTITGVQVDDEAVYFCGSGDSSSIAAFGAGTTLTVL
modifications: VH of PRb-CN32; VL of PRb-CN32
B1 was tested, and the “cytotoxicity of complex with cotinine-duocarmycin, PRb-CN01 versus PRb-CN32” value (NIH3T3 cells) was “equivalent cytotoxicity regardless of the presence/absence of mPDGF-BB” and the “inhibition of binding of PRb-CN01-rabbit Fc to mPDGFR-β-hFc chimeric protein” value (mPDGFR-β [1]) was “inhibited”.

B2: PRb-CN01: anti-mPDGFR-β chicken scFv clone (VH SEQ ID NO 7, VL SEQ ID NO 8), tested as scFv-Cκ-anti-cotinine scFv bispecific antibody (antibody, V domains shown)
VH: AVTLDESGGGLQTPGGALSLVCKASGFTFSDRAMHWVRQAPGKGLEWVGLITNTGGSTNYGAAVKGRATISRDNGQSTVRLQLNNLRAEDTGTYYCTRGVGSWAHGGRIDAWGHGTEVIVSS
VL: LTQPSSVSANPGETVKITCSGGSGSYGWFQQKSPGSAPVTVIYSNNQRPSDIPSRFSGSKSGSTNTLTITGVQAEDEAIYYCGTRDSSYVGIFGAGTTLTVL
modifications: VH of PRb-CN01; VL of PRb-CN01
With B2 the “cytotoxicity of complex with cotinine-duocarmycin, PRb-CN01 versus PRb-CN32” value (NIH3T3 cells) was “equivalent cytotoxicity regardless of the presence/absence of mPDGF-BB”, the “toxicity with the addition of mPDGF-BB” value (NIH3T3 cells; complex with cot-duo or cot-duo-cot, NIH3T3, FIG. 5) was “also high with the addition of mPDGF-BB” and the “toxicity compared to control anti-HER2 x cotinine scFv-Cκ-scFv” value (NIH3T3 cells; complex with cotinine-duocarmycin, NIH3T3, with or without mPDGF-BB, FIG. 5) was “highest toxicity”. The “toxicity compared to free duocarmycin” value (NIH3T3 cells; cotinine-duocarmycin complexed with antibody, in the presence of mPDGF-BB, p<0.01) was “significantly more toxic than free duocarmycin”, the “binding ability to mPDGFR-β in the presence of mPDGF-BB” value (mPDGFR-β [2]) was “not inhibited” and the “toxicity in MOLT-4 cells compared to control antibody” value (MOLT-4 cells) was “no difference in toxicity from the control antibody”. The “inhibition of binding of PRb-CN01-rabbit Fc to mPDGFR-β-hFc chimeric protein” value (mPDGFR-β [1]) was “inhibited”.
